Type in all cases: biochemical, Metallosphaera sedula
Substrate in series [1]: C/C=C/C(=O)SCCNC(=O)CCNC(=O)[C@H](O)C(C)(C)COP(=O)(O)OP(=O)(O)OC[C@H]1O[C@@H](n2cnc3c(N)ncnc32)[C@H](O)[C@@H]1OP(=O)(O)O
In words: UHPLC, 3-hydroxybutyryl-CoA formation. As to conditions: hydratase reaction, 100 mM Tris-HCl pH 7.8, 65 °C, apparent Km. From the text: UHPLC, 3-hydroxybutyryl-CoA formation on crotonyl-CoA hydratase Msed_0384

Substrate in series [2]: CCCCC/C=C/C(=O)SCCNC(=O)CCNC(=O)[C@H](O)C(C)(C)COP(=O)(O)OP(=O)(O)OC[C@H]1O[C@@H](n2cnc3c(N)ncnc32)[C@H](O)[C@@H]1OP(=O)(O)O
In words: UHPLC, 3-hydroxyoctanoyl-CoA formation. The note with it: hydratase reaction, 100 mM Tris-HCl pH 7.8, 65 °C, apparent Km. The source says:
UHPLC, 3-hydroxyoctanoyl-CoA formation on crotonyl-CoA hydratase Msed_0384

Substrate in series [3]: C=C(C)C(=O)SCCNC(=O)CCNC(=O)[C@H](O)C(C)(C)COP(=O)(O)OP(=O)(O)OC[C@H]1O[C@@H](n2cnc3c(N)ncnc32)[C@H](O)[C@@H]1OP(=O)(O)O
In words: UHPLC, 3-hydroxy-2-methylpropionyl-CoA formation. The note with it: hydratase reaction, 100 mM Tris-HCl pH 7.8, 65 °C, apparent Km. The source says: UHPLC, 3-hydroxy-2-methylpropionyl-CoA formation on crotonyl-CoA hydratase Msed_0384

Substrate in series [4]: C[C@H](O)CC(=O)SCCNC(=O)CCNC(=O)[C@H](O)C(C)(C)COP(=O)(O)OP(=O)(O)OC[C@H]1O[C@@H](n2cnc3c(N)ncnc32)[C@H](O)[C@@H]1OP(=O)(O)O
In words: Ccr-coupled dehydratase assay, UHPLC. The note with it: dehydratase reaction, 100 mM Tris-HCl pH 7.8, 42 °C, 1 mM NADPH and NaHCO3 for coupling enzyme, apparent Km. From the text:
Ccr-coupled dehydratase assay, UHPLC on crotonyl-CoA hydratase Msed_0384

Substrate in series [5]: C=CC(=O)SCCNC(=O)CCNC(=O)[C@H](O)C(C)(C)COP(=O)(O)OP(=O)(O)OC[C@H]1O[C@@H](n2cnc3c(N)ncnc32)[C@H](O)[C@@H]1OP(=O)(O)O
In words: UHPLC, 3-hydroxypropionyl-CoA formation. As to conditions: hydratase reaction, 100 mM Tris-HCl pH 7.8, 65 °C, apparent Km. The source says:
UHPLC, 3-hydroxypropionyl-CoA formation on crotonyl-CoA hydratase Msed_0384

B1: crotonyl-CoA hydratase Msed_0384 (Metallosphaera sedula DSM 5348) (protein)
chain: MRTVIVEKGDVGIIRLNRPEKLNAINMEMVYDLVEALNELKSQVRAVIITGNGKAFSAGADVKEMLDMSIEQVTREGHMPLWDALRGFRKPVIAALNGVAAGGGLELAMACDMIVAGESARLGQPEINLGIIPGAGGTQRLTRTVGKYRAMEMVLTGRLITAWDAYRMGLVTKVVPDEALIPEAMRLAREITGKSGFAVELGKEAVNRALDTLLQQGLDLERRNFYVTLVSQDGREGMKAFLEKRKPEWKT
notes: full-length, N-terminal His10-tag (pET16b), recombinant in E. coli Rosetta 2 (DE3)
B1: the Km – broadly, the concentration of substrate that gives half-maximal velocity – is 220 ± 20 µM in series [1]; 500 ± 60 µM in series [2]; 70 ± 30 µM in series [3]; 50 ± 10 µM in series [4]; 180 ± 30 µM in series [5].

The record behind these values is article PMC7078158, “Enzymes Catalyzing Crotonyl-CoA Conversion to Acetoacetyl-CoA During the Autotrophic CO2 Fixation in Metallosphaera sedula” (Frontiers in Microbiology, 2020).
